Experimental data reported in article PMC5572259, “The C-terminal Six Amino Acids of the FNT Channel FocA Are Required for Formate Translocation But Not Homopentamer Integrity” (Frontiers in Microbiology, 2017).
Several values for one entry are separate records, joined by “and”; a condition that tells them apart may be missing. Equal entries are not always repeated.

Molecular target: the molecule itself
Assay: native gel or EMSA; blue-native PAGE, 5-13.5% (w/v polyacrylamide) gradient gel, 5 ug of purified DDM-solubilised FocA variant per lane

B1: N-terminally Strep-tagged FocA (native, full-length formate channel FocA of Escherichia coli) (natural protein, UniProt P0AC23 1-285, looked up)
chain: MKADNPFDLLLPAAMAKVAEEAGVYKATKHPLKTFYLAITAGVFISIAFVFYITATTGTGTMPFGMAKLVGGICFSLGLILCVVCGADLFTSTVLIVVAKASGRITWGQLAKNWLNVYFGNLVGALLFVLLMWLSGEYMTANGQWGLNVLQTADHKVHHTFIEAVCLGILANLMVCLAVWMSYSGRSLMDKAFIMVLPVAMFVASGFEHSIANMFMIPMGIVIRDFASPEFWTAVGSAPENFSHLTVMNFITDNLIPVTIGNIIGGGLLVGLTYWVIYLRENDHH
notes: Formate channel FocA, Escherichia coli, full length (ends with H285; C-terminal residues after R280 are ENDHH); Kept in 2 mM DDM after purification; also called FocA5; native FocA5; source: E. coli BL21(DE3) with pfocA5 (pASK-IBA5focA), membrane fraction solubilised with DDM, purified (Strep-Tactin-Sepharose); not shown: Strep-tag II, N-terminal, kept
stoichiometry N: 5 and 10

B2: FocA5N282 (FocA truncation variant ending with N282, lacking D283, H284 and H285) (domain or fragment, Escherichia coli, UniProt P0AC23 1-282, looked up)
chain: MKADNPFDLLLPAAMAKVAEEAGVYKATKHPLKTFYLAITAGVFISIAFVFYITATTGTGTMPFGMAKLVGGICFSLGLILCVVCGADLFTSTVLIVVAKASGRITWGQLAKNWLNVYFGNLVGALLFVLLMWLSGEYMTANGQWGLNVLQTADHKVHHTFIEAVCLGILANLMVCLAVWMSYSGRSLMDKAFIMVLPVAMFVASGFEHSIANMFMIPMGIVIRDFASPEFWTAVGSAPENFSHLTVMNFITDNLIPVTIGNIIGGGLLVGLTYWVIYLREN
notes: FocA, Escherichia coli, stop codon at codon 283 (lacking D283, H284 and H285); source: E. coli BL21(DE3) with pfocA5N282, membrane fraction solubilised with DDM, purified (Strep-Tactin-Sepharose); not shown: Strep-tag II, N-terminal, kept
stoichiometry N: 10 and 5

B3: FocA5H284 (FocA truncation variant ending with H284, lacking H285) (domain or fragment, Escherichia coli, UniProt P0AC23 1-284, looked up)
chain: MKADNPFDLLLPAAMAKVAEEAGVYKATKHPLKTFYLAITAGVFISIAFVFYITATTGTGTMPFGMAKLVGGICFSLGLILCVVCGADLFTSTVLIVVAKASGRITWGQLAKNWLNVYFGNLVGALLFVLLMWLSGEYMTANGQWGLNVLQTADHKVHHTFIEAVCLGILANLMVCLAVWMSYSGRSLMDKAFIMVLPVAMFVASGFEHSIANMFMIPMGIVIRDFASPEFWTAVGSAPENFSHLTVMNFITDNLIPVTIGNIIGGGLLVGLTYWVIYLRENDH
notes: FocA, Escherichia coli, stop codon at codon 285 (lacking H285); source: E. coli BL21(DE3) with pfocA5H284, membrane fraction solubilised with DDM, purified (Strep-Tactin-Sepharose); not shown: Strep-tag II, N-terminal, kept
stoichiometry N: 10 and 5

B4: FocA5E281 (FocA truncation variant ending with E281, lacking N282, D283, H284 and H285) (domain or fragment, Escherichia coli, UniProt P0AC23 1-281, looked up)
chain: MKADNPFDLLLPAAMAKVAEEAGVYKATKHPLKTFYLAITAGVFISIAFVFYITATTGTGTMPFGMAKLVGGICFSLGLILCVVCGADLFTSTVLIVVAKASGRITWGQLAKNWLNVYFGNLVGALLFVLLMWLSGEYMTANGQWGLNVLQTADHKVHHTFIEAVCLGILANLMVCLAVWMSYSGRSLMDKAFIMVLPVAMFVASGFEHSIANMFMIPMGIVIRDFASPEFWTAVGSAPENFSHLTVMNFITDNLIPVTIGNIIGGGLLVGLTYWVIYLRE
notes: source: E. coli BL21(DE3) with pfocA5E281, membrane fraction solubilised with DDM, purified (Strep-Tactin-Sepharose); not shown: Strep-tag II, N-terminal, kept
stoichiometry N: 5

B5: FocA5R280 (FocA truncation variant ending with R280, lacking E281, N282, D283, H284 and H285) (domain or fragment, Escherichia coli, UniProt P0AC23 1-280, looked up)
chain: MKADNPFDLLLPAAMAKVAEEAGVYKATKHPLKTFYLAITAGVFISIAFVFYITATTGTGTMPFGMAKLVGGICFSLGLILCVVCGADLFTSTVLIVVAKASGRITWGQLAKNWLNVYFGNLVGALLFVLLMWLSGEYMTANGQWGLNVLQTADHKVHHTFIEAVCLGILANLMVCLAVWMSYSGRSLMDKAFIMVLPVAMFVASGFEHSIANMFMIPMGIVIRDFASPEFWTAVGSAPENFSHLTVMNFITDNLIPVTIGNIIGGGLLVGLTYWVIYLR
notes: FocA, Escherichia coli, stop codon at codon 281 (lacking E281, N282, D283, H284 and H285); also called FocAR280; source: E. coli BL21(DE3) with pfocA5R280, membrane fraction solubilised with DDM, purified (Strep-Tactin-Sepharose); not shown: Strep-tag II, N-terminal, kept
stoichiometry N: 10 and 5

B6: FocA5D283 (FocA truncation variant ending with D283, lacking H284 and H285) (domain or fragment, Escherichia coli, UniProt P0AC23 1-283, looked up)
chain: MKADNPFDLLLPAAMAKVAEEAGVYKATKHPLKTFYLAITAGVFISIAFVFYITATTGTGTMPFGMAKLVGGICFSLGLILCVVCGADLFTSTVLIVVAKASGRITWGQLAKNWLNVYFGNLVGALLFVLLMWLSGEYMTANGQWGLNVLQTADHKVHHTFIEAVCLGILANLMVCLAVWMSYSGRSLMDKAFIMVLPVAMFVASGFEHSIANMFMIPMGIVIRDFASPEFWTAVGSAPENFSHLTVMNFITDNLIPVTIGNIIGGGLLVGLTYWVIYLREND
notes: source: E. coli BL21(DE3) with pfocA5D283, membrane fraction solubilised with DDM, purified (Strep-Tactin-Sepharose); not shown: Strep-tag II, N-terminal, kept
stoichiometry N: 5

B7: FocA5L279 (FocA truncation variant ending with L279, lacking R280, E281, N282, D283, H284 and H285) (domain or fragment, Escherichia coli, UniProt P0AC23 1-279, looked up)
chain: MKADNPFDLLLPAAMAKVAEEAGVYKATKHPLKTFYLAITAGVFISIAFVFYITATTGTGTMPFGMAKLVGGICFSLGLILCVVCGADLFTSTVLIVVAKASGRITWGQLAKNWLNVYFGNLVGALLFVLLMWLSGEYMTANGQWGLNVLQTADHKVHHTFIEAVCLGILANLMVCLAVWMSYSGRSLMDKAFIMVLPVAMFVASGFEHSIANMFMIPMGIVIRDFASPEFWTAVGSAPENFSHLTVMNFITDNLIPVTIGNIIGGGLLVGLTYWVIYL
notes: FocA, Escherichia coli, stop codon at codon 280 (lacking R280, E281, N282, D283, H284 and H285); also called FocAL279; source: E. coli BL21(DE3) with pfocAL279 (pfocA5L279), membrane fraction solubilised with DDM, purified (Strep-Tactin-Sepharose); not shown: Strep-tag II, N-terminal, kept
stoichiometry N: 5 and 10
